Paper PMC9884259 (The Journal of Membrane Biology, 2022)
Changes are numbered by the printed parent chain.

B1: Streptolysin O (SLO), wildtype, residues L78-K571, His-tagged (natural protein)
chain: LAPKEMPLESAEKEEKKSEDKKKSEEDHTEEINDKIYSLNYNELEVLAKNGETIENFVPKEGVKKADKFIVIERKKKNINTTPVDISIIDSVTDRTYPAALQLANKGFTENKPDAVVTKRNPQKIHIDLPGMGDKATVEVNDPTYANVSTAIDNLVNQWHDNYSGGNTLPARTQYTESMVYSKSQIEAALNVNSKILDGTLGIDFKSISKGEKKVMIAAYKQIFYTVSANLPNNPADVFDKSVTFKELQRKGVSNEAPPLFVSNVAYGRTVFVKLETSSKSNDVEAAFSAALKGTDVKTNGKYSDILENSSFTAVVLGGDAAEHNKVVTKDFDVIRNVIKDNATFSRKNPAYPISYTSVFLKNNKIAGVNNRTEYVETTSTEYTSGKINLSHQGAYVAQYEILWDEINYDDKGKEVITKRRWDNNWYSKTSPFSTVIPLGANSRNIRIMARECTGLAWEWWRKVIDERDVKLSKEINVNISGSTLSPYGSITYK
B2: SLO (C/A)-SS mutant ([change], [change], [change]), residues L78-K571, His-tagged (natural protein)
chain: B1 chain with G51C, S184C, C453A

Columns and labels:
high-speed AFM = target: the molecule itself; test: high-speed AFM
[1] = target: B1; test: high-speed AFM; settings: both partners purified

| Binder | binding result (high-speed AFM) | binding result [1] |
| --- | --- | --- |
| B1 | binds |  |
| B2 | binds | binds |
